Experimental findings from patent US6545141 are described below.

For the experiment, the target named is T7 peptide-added FC99 protein having T7 peptide added to the N-terminal of the amino acid sequence described as SEQ ID NO: 1 (human) (UniProt Q92529). In words: cell-based or functional assay.
Chain of UniProt Q92529 (Q92529 other isoform, or with tags, fused parts or gaps limits assumed): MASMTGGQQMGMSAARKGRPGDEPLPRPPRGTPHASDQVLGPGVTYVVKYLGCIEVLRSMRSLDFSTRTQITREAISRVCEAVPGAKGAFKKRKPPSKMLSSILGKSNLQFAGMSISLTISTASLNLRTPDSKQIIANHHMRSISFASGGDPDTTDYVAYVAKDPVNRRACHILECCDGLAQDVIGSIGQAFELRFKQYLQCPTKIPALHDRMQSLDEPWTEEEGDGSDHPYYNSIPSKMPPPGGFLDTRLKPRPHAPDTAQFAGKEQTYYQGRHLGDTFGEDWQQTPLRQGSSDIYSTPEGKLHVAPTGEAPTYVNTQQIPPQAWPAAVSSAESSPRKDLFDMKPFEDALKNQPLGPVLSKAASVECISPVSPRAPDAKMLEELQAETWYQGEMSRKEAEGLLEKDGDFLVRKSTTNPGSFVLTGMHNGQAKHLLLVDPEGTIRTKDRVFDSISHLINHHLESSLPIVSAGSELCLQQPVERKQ

Regarding “TrkB receptor activated by the administration of BDNF”, the BDNF-dependent increase in the tyrosine phosphorylation of the FC99 protein (band densities of Lanes 2 and 3, NIH Image) was determined as 2 fold.
